Measurements: the DeepSol protein solubility set

Experiment: soluble on expression in E. coli; label from the status in PepcDB or PDB records

Soluble on expression in E. coli, not soluble:
MSPHPPQPHPPMPPMPPVTAPPGAMTPMPPVPADAQKLHQSTGNDACIKRLQQLNVEDGAKMYMKPTEPGKMGRPVDIQTNVFGIEVTKETTVHRFMVHAKADLTSTKEVTFTKKGKEDFVVQDRRDKCCNIFFLAVEKNPEFFKMKDGNQIVYDGQSTLYTTVNLFSELDANGTKSKVFQINGADTGNDDLKTLPCISLEIYAPRDNSITLSSENLGKRTADQNIEVNNREYTQFLELALNQHCVRETNRFGCFEHGKVYFLNATEEGFDQRDCVDVGDGKQLYPGLKKTIQFIEGPYGRGQNNPSLVIDGMKAAFHKEQTVIQKLFDITGQDPSNGLNNMTREKAAAVIKGLDCYSTYTNRKRHLRIEGIFHESATKTRFELPDGKTCSIAEYYADKYKISLQYPNANLVVCKDRGNNNYFPAELMTVSRNQRVTIPQQTGNQSQKTTKECAVLPDVRQRMIITGKNAVNITLENELLVALGIKVYSEPLMVQARELDGKELVYQRSVMSDMGKWRAPPGWFVKPATVPDLWAAYAVGNPGCRFSIGDVNQLVGMFIDSCKKKGMVIKPPCETGLYSTEKIMTQLEKVAASKCKYVLMITDDAIVHLHKQYKALEQRTMMIVQDMKISKANAVVKDGKRLTLENIINKTNVKLGGLNYTVSDAKKSMTDEQLIIGVGVSAPPAGTKYMMDNKGHLNPQIIGFASNAVANHEFVGDFVLAPSGQDTMASIEDVLQNSIDLFEKNRKALPKRIIIYRSGASEGSHASILAYEIPLARAIIHGYSKEIKLIFIVVTKEHSYRFFRDQLRSGGKATEMNIPPGIVLDNAVTNPACKQFFLNGHTTLQGTAKTPLYTVLADDCKAPMDRLEELTFTLCHHHQIVSLSTSIPTPLYVANEYAKRGRDLWGELTTKGPIEAKESQGERLKELTKEIGYKQTDLNQKRVNA
MSLDPVGPISDEETSYYVRLQYNGEFLPLFTKVDGITYKKDKSDYSPLKPSFIAGGGAFGYKMDDIRVDVEGVYSYLNKNDVKDVTFDPANTIADSVTAISGLVNVYYDIAIEDMPITPYIGVGVGATYISTPLEPAVNDQKSKFGFAGQVKAGVSYDVTPEVKLYAGARYFGSYGANFDGKKTDPKDSTRQVTDAGAYKVLYSTVGAEAGVAFNFEGHHHHHH
MAGQLPRRIIKETQRLLADPVPGISANPDESNARYFHVMIAGPDDSPFAGGVFKLELFLPEEYPMAAPKVRFMTKIYHPNIDKLGRICLDILKDKWSPALQIRTVLLSIQALLSAPNPEDPLATDVAEQWKTNEAEAIKTAKQWTMNYAQA
TEQTNVLVLCAGGGTSGLLANALNKAAEEYHVPVKAAAGGYGAHMDIMKEYQLIILAPQVASNYEDIKQDTDRLGIKLAKTQGAEYIKLTRDGQAALDFVQQQFEN
MIKDILNTIASLVEENVVVFASERGKQLLQKVKADLVSFKPINFYALDAGKQITDALKLIESYCIEMNRIFDELNHQSSVSLANEKLTHKIKNILTNLKNKQNKITQLREKIPEGMLDIKRALYIVENSFLSESEPEEKELRSKFKRIKKFMSNSNKEYLDLIKKGGLLNTVLLDTTTLYWNQLHEYSTLLNQCRITLQKSHHLTKEGQLALRCFNSAIQKMPPKKHIINALKILNKPNSKTEAIEKIGFVSPHGREACMQLTCWGKKFFYIPRSEEMYHFDYDPKEDLNETGGNCFGESMMFIHFLSKGAIRWLCPEAGLINFQLDQTRNLKFKKATLGEGETLVSDNSPHDSLEWEDMRPVLLDNPYFKPGSLCGVIFSMNDYTKAKREFTAGHMIVVAKLDTNLNPYKYIIYEKDFGAFGLTDDESLEYLISEQILPLYRGMNYSKIKLVKYGEASTETYDLLNKIKPQTGIPQKESTASDSINTYFDNAFFKLSKETNKENVIDQVNQTDVFGFCRN
MEYRMFDIGVNLTSSQFAKDRDDVVACAFDAGVNGLLITGTNLRESQQAQKLARQYSSCWSTAGVHPHDSSQWQAATEEAIIELAAQPEVVAIGECGLDFNRNFSTPEEQERAFVAQLRIAADLNMPVFMHCRDAHERFMTLLEPWLDKLPGAVLHCFTGTREEMQACVAHGIYIGITGWVCDEPTRTGAAGTFAVDSGGKITDRNLEHHHHHH
MGHHHHHHSHDFEFIRRVEASEESLDVVFAGRLIKEKGADLLIKAMKLLPDYSCLIVGEGPEKASLIKSAPENVKFAGFMNYGYLIATLKSAKVFVLPSRREGFGIAALEANACGLPVVTINHPMNAVVEIARETGFIASPSPQDIAEKIKIAMESRKKMRRRCVDYARKF
MEFREQVLNLLAEVAENDIVKENPDVEIFEEGIIDSFQTVGLLLEIQNKLDIEVSIMDFDRDEWATPNKIVEALEELR
MGSDKIHHHHHHMQNVGLVMGKSSITDFSFAVNPSAIPKFGEYVTAINRDGEEVIGIVREISNFNRMILDEGFSFEYLVKNLDFSRRLIEKNDVIVATATVIGVVKDGEVYPNRTPIKPNSEVFLADDDVLSSLFKCDRGVELGRMIARPDISVSLDIKQLVLRHFAILSVTGGGKSNTVAVLVNDIVKKLNGTVVLIDPHGEYVGYTFEDGSERGKNVVPAGIRPERLEPWEFASLVGVDREKAAVQRMHLERIFTTVRHEGKAGREFVERVLDIAEEWINIAAGKGEAEYYDFNGIKRVATLDRQDLNALARIKEYVSSFMRRYEDLLSQNDMLANIKPSYLNVVNLSGFDEGQMRVVVAYLLRNLLVGRINYVRGKKGWEKICPAIVKPLLVIFEEGHIFAPKGVNNDVVSWMGRIAREGRKFGIGLGIVSQRPKRLNDDVLSQCNTKIILRITEPNDQRYVQHASEQISEDLLKDIASLGVGEAVVVGPAVKLPVAVKIRKFAGNYGGRDIDVVEEWLGREEEQKKQVTLEDLAV
MKNADKNFEKEKYIDSLRDYLAVLDKVDDESLKAEICYKVSQIYHYLQKDDPQNALKYAQMSMDLHAKHGEDDLTVLDLINIASILMDSGDKKGALQKLDEAIQKAKDMGDDEIQLIAMSSKASMIAEDNREEALKLYQEVMRKSQEIGDIEDYFDAVQGIVNMVREEDEHRAFEMIMKAIEELENYISGIKSKKEKKDVADSFSYLYDTASDIAMSIGDVDQAMEIAKRLQKIVS
MGSDKIHHHHHHDDDNTANPAEEVVKASKKHDTAILLCTFGSTFKESIKTYDATLADFQNAFPDADIYLSFTSRTCVNRVEAETGIARYQPDLWLQALGNAGYKKVAVQSLHIIPGEEYLSLMNTDVKKKFMIESFPSVQVVKSPCLVYNEEDVEAVAKVLYSHYSDKLADNKNILLLMGHGNPDKNYNANTKYTETEEAMQALAANKNVFVGTVDYGDMLFWPEEGEPNEECVYSKLTKYCEDHNLKPEEITISLAPFMSIAGDHAHNDLWGIEEGDDFSAAAPNADACWRLKLLKMGFKIDTKESHNGSLENCKIIGLGDYDAVRQIWVNHLKALYNDAEAWETGEDYQ
MTPTEQAAVRPPLPVKMVIAGGFGVGKTTAVGSISEIVPLTTEAAITEVAAGVDDLTHTPRKTTTTVAMDFGCITIDPTLKLYLFGTPGQDRFGFMWDDLVEGAVGGLVIVDTRRLDDCYAAVDYFEHKQIPFAVALNAFDGRIEHDLDEVRWALDVAERVPVVVFDARERGSVRDALLVVLELALARTGALEHHHHHH
MGSDKIHHHHHHMQWRRVLRFVNMEVVYVLGVKGGIGKTTFSLYFANQLSLTGKKVLYIDHDYFSFGSLILGHNDLGLLEEIENNLPIFSRSLKNINNLYILKLFSNPLDANKDYSLLSNSIPQVVNSIAKMGLDYVILDSSVGILPDNDIVIGLLEELDVEKKGVFLSDMLSVNSTIKYAKLWENAIKYKILVINMVPPIPEDLSEAMKIANKVYDDNNSKLFNTVVVVPFDEKMYNYKPLGNEYENERLNTILSCIVNRCNTLIIN
MQDLEAELERARELDVATLADAIETIGFECTRCGACCKSEADDPHTATVFPDEVRDVQAAAGAETDRDWRDVARPMPYGLDEDGAGETFEWALQADSCGDCTFYREDDDGTGACSVHGSRPLICQTYPFSVALGGTSQPMGEAVDEAGMVRAHECEGLGRDISRADAEELAGALKARAIRELEEAIDVREAYAPANPEPGATVVHDSEGAKRPDGSAYPNAAALEHHHHHH

Soluble on expression in E. coli, soluble:
GPGSMSAVASDDSAGHVVDPVQHTHRYVQEHRLNELFGHLLQLVLYHRPDDPRAFLAEEVRKIREEKVSLSLFTERDLETMFEMIDATAQRWITVAQLRNTCRNLATASSAGNVSTGGGDLTAEQEAAIAGAGDAAGRVTMDKFKEVLSSLLLTKNKWS
MRRTVRYILATSNPMGDLEALEKFVKLAPDTGADAIALIGNLMPKAAKSRDYAAFFRILSEAHLPTAYVPGPQDAPIWEYLREAANVELVHPEMRNVHETFTFWRGPYLVAGVGGEIADEGEPEEHEALRYPAWVAEYRLKALWELKDYPKIFLFHTMPYHKGLNEQGSHEVAHLIKTHNPLLVLVAGKGQKHEMLGASWVVVPGDLSEGEYSLLDLRARKLETGNVR
MIRQRRRALTPEQQQEMGQQAATRMMTYPPVVMAHTVAVFLSFDGELDTQPLIEQLWRAGKRVYLPVLHPFSAGNLLFLNYHPQSELVMNRLKIHEPKLDVRDVLPLSRLDVLITPLVAFDEYGQRLGMGGGFYDRTLQNWQHYKTQPVGYAHDCQLVEKLPVEEWDIPLPAVVTPSKVWEW
MATWQGTNGGLLAGIGGVNSNAPSVNDIGNTLQLIRQNNDIERSGANNVGLTALQGLSGIAGVFQQEKQAQRQKEFQQAYANAYASGDRGALRQLATQYPDQIESVRKGMGFIDEEQRNSIGTLAAGARLASSSPEAMQSWLQNNAGELARVGVNPHDVAQMYQQNPRQFGEFVDHLGMNSLGPEKYFDLQDKMQGRQVTMRGQDLDSQTAARNQAITMRGQDIQANLGQQRINLDAETNRINNENKRLDRMLSAETNDLKRQEIQSRIAANNQQLQQKQQALNDGYKDGINTLTTSMFTLNDIVSSPSLKSITGLRGVIPNVPGSQAADTQARLDTFKSQAYLTAVQAMRGMGALSDAEGKKLDQAVGSLQNSQSEESFRRNAGVILNTLNQKRNEAVGKYVQQNGIKRVEAPQASIDYLKQHPELSIDFINRYGYLPSLGQ
HHHHHHDITFRNIRFRYKPDSPVILDNINLSIKQGEVIGIVGRSGSGKSTLTKLIQRFYIPENGQVLIDGHDLALADPNWLRRQVGVVLQDNVLLNRSIIDNISLANPGMSVEKVIYAAKLAGAHDFISELREGYNTIVGEQGAGLSGGQRQRIAIARALVNNPKILIFDEATSALDYESEHVIMRNMHKICKGRTVIIIAHRLSTVKNADRIIVMEKGKIVEQGKHKELLSEPESLYSYLYQLQSD
MGSDKIHHHHHHMKEIDELTIKEYGVDSRILMERAGISVVLAMEEELGNLSDYRFLVLCGGGNNGGDGFVVARNLLGVVKDVLVVFLGKKKTPDCEYNYGLYKKFGGKVVEQFEPSILNEFDVVVDAIFGTGLRGEITGEYAEIINLVNKSGKVVVSVDVPSGIDSNTGKVLRTAVKADLTVTFGVPKIGHILFPGRDLTGKLKVANIGHPVHLINSINRYVITREMVRSLLPERPRDSHKGTYGKVLIIAGSRLYSGAPVLSGMGSLKVGTGLVKLAVPFPQNLIATSRFPELISVPIDTEKGFFSLQNLQECLELSKDVDVVAIGPGLGNNEHVREFVNEFLKTLEKPAVIDADAINVLDTSVLKERKSPAVLTPHPGEMARLVKKTVGDVKYNYELAEEFAKENDCVLVLKSATTIVTDGEKTLFNITGNTGLSKGGSGDVLTGMIAGFIAQGLSPLEASTVSVYLHGFAAELFEQDERGLTASELLRLIPEAIRRLKE
